Reference: patent US20220412975

T1: COMP1 candidate peptide, (Donor) GMQQSVRTGLPS (K-Quencher)
T1 chain: GMQQSVRTGLPS

T2: TSP1-4 substrate, (HiLyteFluor-488)-EENKELANELRRPPL-K(QXL520)-NH2
T2 chain: EENKELANELRRPPLK

T3: TSP1-2 substrate, (HiLyteFluor-488)-SSMVLELRGLRTIVT-K(QXL520)-NH2
T3 chain: SSMVLELRGLRTIVTK

T4: TSP1-3 substrate, (HiLyteFluor-488)-KVTEENKELANELRR-K(QXL520)-NH2
T4 chain: KVTEENKELANELRRK

T5: TSP1-5 substrate, (HiLyteFluor-488)-SSMVLELRGLRT-K(QXL520)-NH2
T5 chain: SSMVLELRGLRTK

T6: COMP2 candidate peptide, (Donor) SPGFRC(Acm)EAC(Acm)PPGYS (K-Quencher)
T6 chain: SPGFRCEACPPGYS

T7: TSP1-1 substrate, (HiLyteFluor-488)-DELSSMVLELRGLRT-K(QXL520)-NH2
T7 chain: DELSSMVLELRGLRTK

T8: (HiLyteFluor-488)-DELSSMVLELRGLRT-K(QXL520)-E-NH2
T8 chain: DELSSMVLELRGLRTK

B1: rADAMTS-7 (Rat 1-575)-Flag (protein)
chain: LPTEGRAGLDIVHPVRVDAGGSFLSYELWPRVLRKRDVSAAQASSAFYQLQYQGRELLFNLTTNPYLLAPGFVSEIRRRSNLSNVHIQTSVPTCHLLGDVQDPELEGGFAAISACDGLRGVFQLSNEDYFIEPLDEVPAQPGHAQPHMVYKHKRSGQQDDSRTSGTCGVQGSPELKHQREHWEQRQQKRRQQRSISKEKWVETLVVADSKMVEYHGQPQVESYVLTIMNMVAGLYHDPSIGNPIHITVVRLIILEDEEKDLKITHHADDTLKNFCRWQKNVNMKGDDHPQHHDTAILLTRKDLCATMNHPCETLGLSHVAGLCHPQLSCSVSEDTGLPLAFTVAHELGHSFGIQHDGTGNDCESIGKRPFIMSPQLLYDRGIPLTWSRCSREYITRFLDRGWGLCLDDRPSKGVINFPSVLPGVLYDVNHQCRLQYGPSSAYCEDVDNVCYTLWCSVGTTCHSKMDAAVDGTSCGKNKWCLNGECVPEGFQPETVDGGWSGWSAWSVCSRSCGVGVRSSERQCTQPVPKNKGKYCVGERKRYRLCNLQACPENLYFQGDYKDDDDK
B2: purified ADAMTS-7 E389Q catalytic inactive proteins (protein)
chain: SVSKEKWVETLVVADAKMVEYHGQPQVESYVLTIMNMVAGLFHDPSIGNPIHITIVRLVLLEDEEEDLKITHHADNTLKSFCKWQKSINMKGDAHPLHHDTAILLTRKDLCAAMNRPCETLGLSHVAGMCQPHRSCSINEDTGLPLAFTVAHQLGHSFGIQHDGSGNDCEPVGKRPFIMSPQLLYDAAPLTWSRCSRQYITRFLDRGWGLCLDDPPAKDIIDFPSVPPGVLYDVSHQCRLQYGAYSAFCEDMDNVCHTLWCSVGTTCHSKLDAAVDGTRCGENKWCLSGECVPVGFRPEAV
B3: Rat/human ADAMTS-12 chimera, rPro-hCD (Rat 1-244/Human 241-543)-3xFLAG (protein)
chain: HGRQAQPWPVRFPDPKQEHFIKSLPEYHIVSPVQVDASGHFLSYGLHHPVTGSRKKRAAGGSGDQVYYRISHEEKNLFFNLTVNWEFLSNGYVVERRYGNLSHVKMAASSGQPCHLRGTVLQQGPTIRMGTAALSACQGLTGFFHLPHGDFFIEPVKKHPLTEEGYQPHVIYRRQSYRVPETKEPTCGLKDSLDNSVKQELQREKWERKNWPSRSLSRRSISKERWVETLVVADTKMIEYHGSENVESYILTIMNMVTGLFHNPSIGNAIHIVVVRLILLEEEEQGLKIVHHAEKTLSSFCKWQKSINPKSDLNPVHHDVAVLLTRKDICAGFNRPCETLGLSHLSGMCQPHRSCNINEDSGLPLAFTIAHELGHSFGIQHDGKENDCEPVGRHPYIMSRQLQYDPTPLTWSKCSEEYITRFLDRGWGFCLDDIPKKKGLKSKVIAPGVIYDVHHQCQLQYGPNATFCQEVENVCQTLWCSVKGFCRSKLDAAADGTQCGEKKWCMAGKCITVGKKPESIPGGGGSDYKDHDGDYKDHDIDYKDDDDK

How the values were obtained:
[1] = biological target: T1, COMP1 candidate peptide, (Donor) …
[2] = biological target: T2, TSP1-4 substrate, …
[3] = biological target: T3, TSP1-2 substrate, …
[4] = biological target: T4, TSP1-3 substrate, …
[5] = biological target: T5, TSP1-5 substrate, …
[6] = biological target: T6, COMP2 candidate peptide, (Donor) …
[7] = biological target: T7, TSP1-1 substrate, …
[8] = biological target: T8, (HiLyteFluor-488)-DELSSMVLELRGLRT-K(QXL5 …)

Protein	kcat [1]	kcat [2]	FRET peptide cleavage (Relative Fluorescence Units over time) [3]	kcat [3]	kcat [4]	FRET peptide cleavage (Relative Fluorescence Units over time) [5]	kcat [5]	kcat [6]	FRET peptide cleavage (Relative Fluorescence Units over time) [7]	kcat [7]	FRET peptide cleavage (Relative Fluorescence Units over time) [1]	FRET peptide cleavage (Relative Fluorescence Units over time) [2]	FRET peptide cleavage (Relative Fluorescence Units over time) [4]	FRET peptide cleavage (Relative Fluorescence Units over time) [6]	FRET peptide cleavage (increase of fluorescence intensity) [8]
B1	8.17e-06 s⁻¹	4.33e-05 s⁻¹	along with S2 and S5 peptides containing the E289⬇L290 cleavage site	0.000128 s⁻¹	2.33e-05 s⁻¹	along with S2 and S5 peptides containing the E289⬇L290 cleavage site	4.17e-05 s⁻¹	8.33e-06 s⁻¹	Activity data from the rat ADAMTS-7 construct identified TSP1 S1 (SEQ ID NO: 4) as the substrate	0.000167 s⁻¹	–	–	–	–	–
B2	–	–	Significant activity was not observed with substrates ... with incubation with purified ADAMTS-7 E389Q catalytic inactive proteins (data not shown	–	–	Significant activity was not observed with substrates ... with incubation with purified ADAMTS-7 E389Q catalytic inactive proteins (data not shown	–	–	Significant activity was not observed with substrates ... with incubation with purified ADAMTS-7 E389Q catalytic inactive proteins (data not shown	–	Significant activity was not observed with substrates ... with incubation with purified ADAMTS-7 E389Q catalytic inactive proteins (data not shown	Significant activity was not observed with substrates ... with incubation with purified ADAMTS-7 E389Q catalytic inactive proteins (data not shown	Significant activity was not observed with substrates ... with incubation with purified ADAMTS-7 E389Q catalytic inactive proteins (data not shown	Significant activity was not observed with substrates ... with incubation with purified ADAMTS-7 E389Q catalytic inactive proteins (data not shown	–
B3	–	–	–	–	–	–	–	–	–	–	–	–	–	–	It was surprisingly found that the same substrate could be used for the paralogs ADAMTS-7 and ADAMTS-12
